“And” between values parts separate entries of the source, which are not always exact repeats. Identical values can stand only once.
Tests used:
IGFBP-3 = experiment: Serum IGFBP-3 levels in cynomolgus monkeys after a single antibody dose; format: in vivo, cynomolgus monkey; conditions: for serum IGFBP-3 levels (% change from baseline) / serum IGFBP-3 decrease below baseline: cynomolgus monkeys
Procedure: To determine if GHR antagonist monoclonal antibodies can affect IGF-1, IGFBP-3, and ALS levels in vivo by inhibiting the function of GHR, the effect of humanized anti-human GHR antibody SS1 was tested in cynomolgus monkeys. A dose-response study was conducted to test for changes in IGF-1, IGFBP-3, and ALS levels following a single dose of SS1. Eight naïve female cynomolgus monkeys were injected intravenously with a single dose of SS1 or negative control human IgG2, in 1×PBS 0.01% Tween™ 20. Two monkeys were dosed with 30 mg/kg SS1, two were dosed with 10 mg/kg SS1, two were dosed with 3 mg/kg SS1, and two were dosed with 30 mg/kg negative control human IgG2Δa on Day 1. […] Serum was also taken from the 30 mg/kg SS1 and negative control treated animals at 864 h post-dose.
Serum samples were analyzed for changes in IGFBP-3 levels compared to baseline using an R&D Systems™ Quantikine™ human IGFBP-3 immunoassay kit (cat. #DGB300).

cyno GHR = experiment: Biacore kinetics and affinity, captured IgG, cyno GHR analyte, 25° C.; format: binding, cynomolgus monkey; conditions: IgG immobilized by capture
cyno GHR, sequence (as listed by the source): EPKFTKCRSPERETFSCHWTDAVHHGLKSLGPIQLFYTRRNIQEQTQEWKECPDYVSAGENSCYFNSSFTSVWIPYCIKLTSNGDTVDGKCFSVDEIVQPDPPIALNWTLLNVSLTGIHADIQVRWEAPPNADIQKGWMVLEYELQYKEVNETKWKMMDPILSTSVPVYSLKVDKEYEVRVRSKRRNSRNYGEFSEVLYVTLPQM
Procedure: (§1) The affinity of a mouse anti-GHR antibody, Ab13, to human and cyno GHR was measured on a Biacore™ 2000 biosensor (GE Lifesciences™, Piscataway N.J.). An anti-mouse Ig sensor surface was prepared using a Biacore™ CM5 chip and reagents from the Biacore™ mouse antibody capture kit (GE Lifesciences™, Catalog# BR-1008-38), using instructions provided by the manufacturer.
(§2) The kinetics assay was run using a kinetic titration methodology as described in Karlsson et al., 2006, Anal. Biochem 349, 136-147. The mouse antibody, Ab13, was captured onto downstream flow cells at 0.5 μg/mL at a flow rate of 5 μL/min for 1 minute, 2 minutes and 4 minutes on flow cells 2, 3 and 4 respectively. Flow cell 1 was used as a reference surface. […]
(§3) The affinities of a humanized GHR antibody, SS1, and a chimeric molecule comprising the Fab of Ab13 fused to a human Fc domain (“Ab13-hFc”) to human and cyno GHR was measured on a Biacore™ 2000 biosensor (GE Lifesciences™ Piscataway N.J.). […]
(§4) The kinetics assay was run using a methodology with varying dissociation times as described in Katsamba et al., 2006, Anal. Biochem 352, 208-221. […] After the analyte injection, dissociation was monitored for 30 minutes (for the 400 nM GHR cycle) or 30 seconds (all other cycles) followed by regeneration of all flow cells with two 30-second injections of 75 mM phosphoric acid. […]

human GHR = target: T1, human GHR (Homo sapiens, UniProt P10912); experiment: Biacore kinetics and affinity, captured IgG, human GHR analyte, 25° C.; format: binding; conditions: IgG immobilized by capture
T1 construct: his-tagged monomers of amino acids 31-235 of the extracellular domain of the human or cyno GHR
T1 sequence (P10912 49-253): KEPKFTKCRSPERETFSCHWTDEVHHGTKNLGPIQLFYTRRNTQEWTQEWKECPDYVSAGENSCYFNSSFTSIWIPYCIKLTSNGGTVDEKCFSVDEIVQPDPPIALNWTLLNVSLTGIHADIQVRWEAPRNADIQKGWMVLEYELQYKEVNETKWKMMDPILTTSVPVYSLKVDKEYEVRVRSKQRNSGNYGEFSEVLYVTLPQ
Procedure: as §1, §2, §3, §4

B1: SS1: humanized GHR antagonist antibody; VL SEQ ID NO: 7, VH SEQ ID NO: 8; hIgG2Δa heavy chain SEQ ID NO: 134, light chain SEQ ID NO: 135 (antibody)
heavy: EVQLVESGGGLVKPGGSLRLSCAASGFTFSDAWMDWVRQAPGKGLEWVAEIRSKANYHATYYAESVKGRFTISRDDSKNTLYLQMNSLKTEDTAVYYCTLIRDYWGQGTLVTVSSASTKGPSVFPLAPCSRSTSESTAALGCLVKDYFPEPVTVSWNSGALTSGVHTFPAVLQSSGLYSLSSVVTVPSSNFGTQTYTCNVDHKPSNTKVDKTVERKCCVECPPCPAPPVAGPSVFLFPPKPKDTLMISRTPEVTCVVVDVSHEDPEVQFNWYVDGVEVHNAKTKPREEQFNSTFRVVSVLTVVHQDWLNGKEYKCKVSNKGLPSSIEKTISKTKGQPREPQVYTLPPSREEMTKNQVSLTCLVKGFYPSDIAVEWESNGQPENNYKTTPPMLDSDGSFFLYSKLTVDKSRWQQGNVFSCSVMHEALHNHYTQKSLSLSPGK
light: EIVLTQSPGTLSLSPGERATLSCTATSSVSSSYLNWYQQKPGQAPRLLIYSTSNLASGIPDRFSGSGSGTDFTLTISRLEPEDFAVYYCHQYHRSTPTFGGGTKVEIKRTVAAPSVFIFPPSDEQLKSGTASVVCLLNNFYPREAKVQWKVDNALQSGNSQESVTEQDSKDSTYSLSSTLTLSKADYEKHKVYACEVTHQGLSSPVTKSFNRGEC
modifications: Humanized and/or affinity matured antibody sequence
serum IGFBP-3 levels (% change from baseline) (IGFBP-3; SS1 3 mg/kg IV single dose, 24 h post-injection): −18.75 +/− 1.25% | serum IGFBP-3 levels (% change from baseline) (IGFBP-3; SS1 3 mg/kg IV single dose, 48 h post-injection): −22.8 +/− 3.8% | serum IGFBP-3 levels (% change from baseline) (IGFBP-3; SS1 3 mg/kg IV single dose, 72 h post-injection): −36.45 +/− 6.65% | serum IGFBP-3 levels (% change from baseline) (IGFBP-3; SS1 3 mg/kg IV single dose, 96 h post-injection): −37.35 +/− 5.05% | serum IGFBP-3 levels (% change from baseline) (IGFBP-3; SS1 3 mg/kg IV single dose, 120 h post-injection): −38.25 +/− 4.85% | serum IGFBP-3 levels (% change from baseline) (IGFBP-3; SS1 3 mg/kg IV single dose, 144 h post-injection): −46.8 +/− 0.6% | serum IGFBP-3 levels (% change from baseline) (IGFBP-3; SS1 3 mg/kg IV single dose, 192 h post-injection): −32.55 +/− 1.35% | serum IGFBP-3 levels (% change from baseline) (IGFBP-3; SS1 3 mg/kg IV single dose, 312 h post-injection): 22.4 +/− 1.9% | serum IGFBP-3 levels (% change from baseline) (IGFBP-3; SS1 3 mg/kg IV single dose, 336 h post-injection): 28.15 +/− 12.25% | serum IGFBP-3 decrease below baseline (IGFBP-3; SS1 3 mg/kg IV single dose, by 72 hours): about 36% | serum IGFBP-3 decrease below baseline (IGFBP-3; SS1 3 mg/kg IV single dose, by 144 hours): about 47% | serum IGFBP-3 levels (% change from baseline) (IGFBP-3; SS1 10 mg/kg IV single dose, 24 h post-injection): −23.95 +/− 3.35% | serum IGFBP-3 levels (% change from baseline) (IGFBP-3; SS1 10 mg/kg IV single dose, 48 h post-injection): −28.4 +/− 2.9% | serum IGFBP-3 levels (% change from baseline) (IGFBP-3; SS1 10 mg/kg IV single dose, 72 h post-injection): −37.9 +/− 2.4% | serum IGFBP-3 levels (% change from baseline) (IGFBP-3; SS1 10 mg/kg IV single dose, 96 h post-injection): −40.95 +/− 0.35% | serum IGFBP-3 levels (% change from baseline) (IGFBP-3; SS1 10 mg/kg IV single dose, 120 h post-injection): −46.4 +/− 1.1% | serum IGFBP-3 levels (% change from baseline) (IGFBP-3; SS1 10 mg/kg IV single dose, 144 h post-injection): −51.05 +/− 8.85% | serum IGFBP-3 levels (% change from baseline) (IGFBP-3; SS1 10 mg/kg IV single dose, 192 h post-injection): −45.95 +/− 6.35% | serum IGFBP-3 levels (% change from baseline) (IGFBP-3; SS1 10 mg/kg IV single dose, 312 h post-injection): −38.7 +/− 9.6% | serum IGFBP-3 levels (% change from baseline) (IGFBP-3; SS1 10 mg/kg IV single dose, 336 h post-injection): −42.25 +/− 1.85% | serum IGFBP-3 decrease below baseline (IGFBP-3; SS1 10 mg/kg IV single dose, by 72 hours): ~38% | serum IGFBP-3 decrease below baseline (IGFBP-3; SS1 10 mg/kg IV single dose, by 144 hours): ~51% | serum IGFBP-3 levels (% change from baseline) (IGFBP-3; SS1 30 mg/kg IV single dose, 24 h post-injection): −10.6 +/− 4.6% | serum IGFBP-3 levels (% change from baseline) (IGFBP-3; SS1 30 mg/kg IV single dose, 48 h post-injection): −15.75 +/− 9.35% | serum IGFBP-3 levels (% change from baseline) (IGFBP-3; SS1 30 mg/kg IV single dose, 72 h post-injection): −22.95 +/− 16.15% | serum IGFBP-3 levels (% change from baseline) (IGFBP-3; SS1 30 mg/kg IV single dose, 96 h post-injection): −29.4 +/− 13.9% | serum IGFBP-3 levels (% change from baseline) (IGFBP-3; SS1 30 mg/kg IV single dose, 120 h post-injection): −38.15 +/− 9.45% | serum IGFBP-3 levels (% change from baseline) (IGFBP-3; SS1 30 mg/kg IV single dose, 144 h post-injection): −45.7 +/− 11.9% | serum IGFBP-3 levels (% change from baseline) (IGFBP-3; SS1 30 mg/kg IV single dose, 192 h post-injection): −31.05 +/− 16.05% | serum IGFBP-3 levels (% change from baseline) (IGFBP-3; SS1 30 mg/kg IV single dose, 312 h post-injection): −40.65 +/− 5.05% | serum IGFBP-3 levels (% change from baseline) (IGFBP-3; SS1 30 mg/kg IV single dose, 336 h post-injection): −39.45 +/− 0.85% | serum IGFBP-3 decrease below baseline (IGFBP-3; SS1 30 mg/kg IV single dose, by 72 hours): ~23% | serum IGFBP-3 decrease below baseline (IGFBP-3; SS1 30 mg/kg IV single dose, by 144 hours): ~46% | effect on serum IGFBP-3 levels in cynomolgus monkey (IGFBP-3; single IV dose 3, 10 or 30 mg/kg): dose dependently reduces serum IGFBP-3 levels | ka (cyno GHR): 89000 M⁻¹ s⁻¹ and 81000 M⁻¹ s⁻¹ | kd (cyno GHR): 0.00011 s⁻¹ and 0.0001 s⁻¹ | ka (human GHR): 77000 M⁻¹ s⁻¹ and 74000 M⁻¹ s⁻¹ | kd (human GHR): 6.4e-05 s⁻¹ and 7.7e-05 s⁻¹

— US9249224B2 (RINAT NEUROSCIENCE CORP., priority 2011, dated 2016)
